# According to patent US20090280138A1 (OXFORD BIOMEDICA UK, published 2009):
# Key:
# Test in all cases: iTopia peptide binding assay
# [1] = target: T1, MHC class I molecule A*0201 (biotin (bound to streptavidin-coated plate))
# T1 construct: iTopia monomer stripped of placeholder peptide and b2M, then reconstituted with test peptide and fresh b2M; also called A2; HLA-A2
# Experimental: (§1) The 9 mers were tested for Peptide Binding, Off Rate and Affinity using iTopia Epitope Discovery System in accordance with the manufacturer's instructions. Briefly, 96 well microtitre plates coated with MHC molecules representing different MHC alleles are used to identify candidate peptides. […] Determinations are performed in duplicate using an ELISA plate reader and included allele specific positive controls.
# (§2) i) Peptide Binding—This assay measures the ability of individual peptides to bind to the MHC molecules under standardized optimal binding conditions. The assay is performed for all the test peptides across the selected MHC alleles. The test peptides identified as “binders” are characterized further in terms of affinity and dissociation experiments.
# [2] = target: T2, MHC class I molecule B*0702 (biotin (bound to streptavidin-coated plate))
# T2 construct: iTopia monomer stripped of placeholder peptide and b2M, then reconstituted with test peptide and fresh b2M; also called B7; HLA-B7
# Experimental: as §1, §2
# [3] = target: T3, MHC class I molecule A*0101 (biotin (bound to streptavidin-coated plate))
# T3 construct: iTopia monomer stripped of placeholder peptide and b2M, then reconstituted with test peptide and fresh b2M; also called A1; HLA-A1
# Experimental: as §1, §2
# [4] = target: T4, MHC class I molecule A*0301 (biotin (bound to streptavidin-coated plate))
# T4 construct: iTopia monomer stripped of placeholder peptide and b2M, then reconstituted with test peptide and fresh b2M; also called A3; HLA-A3
# Experimental: as §1, §2
# [5] = target: T5, MHC class I allele A*0101 (bound via biotin to streptavidin-coated plate)
# T5 construct: iTopia MHC class I monomer on the plate; placeholder peptide and b2M removed, then reconstituted with test peptide and fresh b2M; also called A1; HLA A1
# Experimental: as §1, §2
# [6] = target: T6, MHC class I allele B*0702 (bound via biotin to streptavidin-coated plate)
# T6 construct: iTopia MHC class I monomer on the plate; placeholder peptide and b2M removed, then reconstituted with test peptide and fresh b2M; also called B7; HLA B7
# Experimental: as §1, §2
# [7] = target: T7, MHC class I allele A*0301 (bound via biotin to streptavidin-coated plate)
# T7 construct: iTopia MHC class I monomer on the plate; placeholder peptide and b2M removed, then reconstituted with test peptide and fresh b2M; also called A3; HLA A3
# Experimental: as §1, §2
# [8] = target: T8, MHC class I allele A*0201 (bound via biotin to streptavidin-coated plate)
# T8 construct: iTopia MHC class I monomer on the plate; placeholder peptide and b2M removed, then reconstituted with test peptide and fresh b2M; also called A2; HLA A2
# Experimental: as §1, §2
Binder,"binding, % of positive control peptide [1]","binding, % of positive control peptide [2]","binding, % of positive control peptide [3]","binding, % of positive control peptide [4]",% of positive control peptide binding [5] [%],% of positive control peptide binding [6] [%],% of positive control peptide binding [7] [%],% of positive control peptide binding [8] [%]
ESLHLEDNA [5T4 9-mer peptide 131 (ESLHLEDNA)],8 % of positive control,0 % of positive control,2 % of positive control,0 % of positive control,,,,
NNPWVCDCH [5T4 9-mer peptide 147 (NNPWVCDCH)],0 % of positive control,4 % of positive control,0 % of positive control,16 % of positive control,,,,
LPRDVLAQL [5T4 9 mer peptide 113 LPRDVLAQL],,,,,3,79,3,10
PHIRVFLDN [5T4 9-mer peptide 143 (PHIRVFLDN)],2 % of positive control,10 % of positive control,0 % of positive control,3 % of positive control,,,,
LTYVSFRNL [5T4 9-mer peptide 125 (LTYVSFRNL)],25 % of positive control,58 % of positive control,28 % of positive control,20 % of positive control,,,,
SSSPTSSAS (also called Peptide No 16) [5T4 9 mer peptide 16 SSSPTSSAS],,,,,4,8,2,7
PWVCDCHMA [5T4 9-mer peptide 148 (PWVCDCHMA)],0 % of positive control,0 % of positive control,0 % of positive control,0 % of positive control,,,,
LASNHFLYL [5T4 9 mer peptide 109 LASNHFLYL],,,,,26,49,18,78
LDNNPWVCD [5T4 9-mer peptide 146 (LDNNPWVCD)],0 % of positive control,3 % of positive control,0 % of positive control,2 % of positive control,,,,
VSSSSPTSS (also called Peptide No 15) [5T4 9 mer peptide 15 VSSSSPTSS],,,,,3,2,2,9
VVAALLAGR (also called Peptide No 100) [5T4 9 mer peptide 100 VVAALLAGR],,,,,9,7,49,11
SFRNLTHLE [5T4 9-mer peptide 127 (SFRNLTHLE)],1 % of positive control,0 % of positive control,1 % of positive control,1 % of positive control,,,,
GMVVAALLA (also called Peptide No 99) [5T4 9 mer peptide 99 GMVVAALLA],,,,,0,0,0,71
LDLSNNSLV (also called Peptide No 120) [5T4 9 mer peptide 120 LDLSNNSLV],,,,,7,3,3,42
AALLAGRAL [5T4 9 mer peptide 101 AALLAGRAL],,,,,1,59,0,38
NNSLVSLTY [5T4 9-mer peptide 122 (NNSLVSLTY)],12 % of positive control,0 % of positive control,8 % of positive control,4 % of positive control,,,,
SSAPFLASA (also called Peptide No 22) [5T4 9 mer peptide 22 SSAPFLASA],,,,,6,7,1,85
NGTLAELQG [5T4 9-mer peptide 138 (NGTLAELQG)],9 % of positive control,0 % of positive control,3 % of positive control,3 % of positive control,,,,
IRVFLDNNP [5T4 9-mer peptide 144 (IRVFLDNNP)],4 % of positive control,5 % of positive control,0 % of positive control,3 % of positive control,,,,
SPTSSASSF (also called Peptide No 17) [5T4 9 mer peptide 17 SPTSSASSF],,,,,2,62,0,4
HLESLHLED [5T4 9-mer peptide 130 (HLESLHLED)],3 % of positive control,2 % of positive control,4 % of positive control,2 % of positive control,,,,
AELQGLPHI [5T4 9-mer peptide 140 (AELQGLPHI)],9 % of positive control,0 % of positive control,0 % of positive control,1 % of positive control,,,,
ERQNRSFEG (also called Peptide No 95) [5T4 9 mer peptide 95 ERQNRSFEG],,,,,0,1,1,1
RRLELASNH [5T4 9 mer peptide 107 RRLELASNH],,,,,0,3,3,5
LHLEDNALK [5T4 9-mer peptide 132 (LHLEDNALK)],4 % of positive control,0 % of positive control,4 % of positive control,5 % of positive control,,,,
RDVLAQLPS [5T4 9 mer peptide 114 RDVLAQLPS],,,,,1,4,3,15
AGRALQGLR (also called Peptide No 103) [5T4 9 mer peptide 103 AGRALQGLR],,,,,0,1,2,2
DNALKVLHN [5T4 9-mer peptide 134 (DNALKVLHN)],5 % of positive control,0 % of positive control,1 % of positive control,0 % of positive control,,,,
